Data published in the DeepSol protein solubility set.

Test: soluble on expression in E. coli; label from the status in PepcDB or PDB records

Row | Sequence | soluble on expression in E. coli
1 | MAHHHHHHMFVRSFCFLRKYGSKSKTPDLKTSFTKTTNFRKAEKISITTTDGEIVKGRGKIRRRTHSALKEAIGAMEHPAIWLWYPWRMNPEPPTPHMPQRRALKNVHGAVFNDLTPVQKKRQEQMLYGVNIPETRQMKFEEQHPLLAGALRKLEGQPKGFPFWYRKYPTRRHAYEYRFSIPVEMLDGYNDDVKKALSKGMMSIQEKQFAQEAMYMERYAEHDFDTTSPAVLAVKRALKCRVLRNHLLTNPHNNIIKTVLANTERKLNHALRRLRKVDFKKYWEIIRDHDVQDILQPPNLVTYRQGSYWKYDWNAGLAISTNLADVMDPRGLNGCVETGRSRSEVARDLGLSYTRPLHENEKKQLSHQAVYYERLAKFKMEQPEAARAMERERFVRKFSGMFVKMDIRSGAPDFPSTYRRLLGTKVVRWASKRHGPN | not soluble
2 | MRHMSGDHAALVLGAGAGRRLGRSKQLLMRDGEPLLRRAARIALLTAPRRCVVVLGADADTLSEVLQDLDIEILRHPDWSEGMGSSLAALRRHVQGDPALRRSLILGCDQPALDAPHLRSLLEEADRAVSGCATSGYSGVRGIPAVVTHTAWADVPLQADSGLRGLFASLDMQSLGCVSAPALALDIDTPADLATAQQRGWVDAELEHHHHHH | not soluble
3 | MQVSLNPEWLARNNDEHKIRRNDHRSPFQRDRARILHSAAFRRLQAKTQVHGTSLNDFHRTRLTHSLEAAQIGTGIVAQIKLKQPEFRELLPSDSLIDSLCLAHDIGHPPYGHGGEIALNYMMRDHGGFEGNAQTFRIVTSLEPYTEHHGMNLSRRTLLGLLKYPALLSATRAAIPPPAVAHQRQLKAKDWSPAKGIYDCDLASLDWVLEPLCESDRELLGQMRAEPSSPKEHRKTRFKSLDCSIMELADDIAYGVHDLEDAIVLGMVTRAQWQEAAAAQLAECGDPWFEEHIAELSEMLFSGKHYVRKDAIGGIVNALLTSISVKPVEAPFHNELLAFNAYIEPHMGNALEVLKHFVSQYVIQIPQVQRFEYKGQQLIMDLFEALSADPERLLPQATGEKWRKAQEQDEGMRVICDYIAAMTDAYAQRLHQQLFSAQSHY | not soluble
4 | MASISSLGVGSNLPLDQLLTDLTKNEKGRLTPITKQQSANSAKLTAYGTLKSALEKFQTANTALNKADLFKSTVASSTTEDLKVSTTAGAAAGTYKINVTQLAAAQSLATKTTFATTKEQLGDTSVTSRTIKIEQPGRKEPLEIKLDKGDTSMEAIRDAINDADSGIAASIVKVKENEFQLVLTANSGTDNTMKITVEGDTKLNDLLAYDSTTNTGNMQELVKAENAKLNVNGIDIERQSNTVTDAPQGITLTLTKKVTDATVTVTKDDTKAKEAIKSWVDAYNSLVDTFSSLTKYTAVEPGEEASDKNGALLGDSVVRTIQTGIRAQFANSGSNSAFKTMAEIGITQDGTSGKLKIDDDKLTKVLKDNTAAARELLVGDGKETGITTKIATEVKSYLADDGIIDNAQDNVNATLKSLTKQYLSVSNSIDETVARYKAQFTQLDTMMSKLNNTSSYLTQQFTAMNKS | not soluble
5 | MANDVMNRNYDFFDPMNFFNEVGNLGRDMFSGDSSMKTDVVEHDKDYVVTAELPGFKKDDIHVDYHDETLRISGKTEVNQSAKDDDGRILRQERRSQNVARSFYLPGIDLKNVKATYADGILTLTLPKQTEVDGSHEISIDLEHHHHHH | soluble
6 | MSLKYIVVTGGVMSGLGKGITAASIGRLFVDMGYRVIPIKIDPYINIDAGTMNPFQHGEVYVLKDGTEVDLDLGHYERFIGEEVTGDHNITTGKIYKRVIEKERKGDYLGQTVQIIPHVTDEIKSWIRRVAKESNAEICLVEIGGTVGDIEGMPFLEAIRQMHNEEKEEDFALVHVTLVPLDAGGEQKTKPTQHSVKELRELGLHPDVIVGRCSERLKPATKKKIALFCDVPEEAVISNEDAEDIYEVPLIFKREKLDEYLMRKLNLRAKESRKEWEEMVKRMKTLYEEASIAIVGKYVDVRDAYLSIKEALKHGGIEAGCKVNIVWVDSEDLENVDDFTLDVDGILVPGGFGARGAEGKIRAIEYARENGVPFLGICFGFQLAVIEFARNVVGFSEANSTELDENTPHPVIDLLPEQKGIDEMGGTMRLGDIEVTIKPGTIAHKLYGSEKVVERHRHRYEVNPEYIEKIESKGLVFSAYSDGGRRMEIAELPDHPFFFATQFHPEFKSRPYRPSPPFVGFVRAALKYRREEEIEGHHHHHH | soluble
7 | MRGYFIVLEGIDGSGKTTQAKLLAEWFEDKGYEVLLTKEPTDSELGKLIRRIILEESVIDGSKISYEAEALLFAADRAEHVKKIILPALSEGKVVICDRYFYSSLAYQWARGLDLNWLIQVNSFAPRPDLAILLDLPVKESLRRIKLRGTLTEFDKIVELQRKVRHNYLKLAEMFPEMRIVNALSSIEDIHSDIVALVKHELLGL | soluble
8 | MALPQRQIVRAENVKIGISWQCALCDLDIYARPLPGAEVIYFGRMVTTHGRYWKDYRNSPQPTNGYETISFDVPLDLRPVVIAINFYEGEAPQGVSGEIRIAVDENTYAAPFHISATRGNRGQGVAKIIETGKASGNHSVIVDPLHIIRAR | not soluble
9 | MIVHVVKRGETLWQLAQRYGVPLERIVAANELSDPNRLAVGQALVIPVPYRYHTVRTGETLWQIARQYGVAVEAIIQANRITNPSLLYPGTTLFIPARIHTVRSGETLAQIASFYGVTVQQLIEVNDITDPNRIVPGQRLIIPPAKPLIEVNAFTVDQGEKGAEQVREVGRHLTYAAPFAYTIRADGGLNPINDTAFIQAAYAARVVPMMTITNFTYQDPGSRLAQMILADVALQTRLLDNVIQVMRAKGYRTLNVDFENVYPSDRKRYNEFLQRAANRLHAEGYVLSTSLAPKISAEQKGLLYEAHDYPAHGRIADFVVLMTYEWGYRFGPPQAISPVNQIRRVLDYAVTAIPRSKIMMGFQIYARDWVLPHVQGQEAETFSPKEALERAVRYGASIQYDAAAASPFYRYTDEQGRQHEVWFEDARSALAKFELVKEYGLRGISYWVLGYPYPENWVLLEDNFRIRKRG | not soluble
10 | MGSDKIHHHHHHAAGLVVNDNDLRNDLAWLSDRGVIHLSLSTWPLSQEEIARALKKAKPSYSSEQVVLARINQRLSALKADFRVTGYTSTDQPGTPQGFGQTQPADSSLGLAFNNSGEWWDVHLQGNVEGGERISNGSRFNANGAYGAVKFWNQWLSFGQIPQWWGPGYEGSLIRGDAMRPMTGFLMQRAEQAAPETWWLRWVGPWQYQISASQMNQYTAVPHAKIIGGRFTFSPFQSLELGASRIMQWGGEGRPESFSSFWDGFTGHDNTGTDNEPGNQLAGFDFKFKLEPTLGWPVSFYGQMVGEDESGYLPSANMFLGGVEGHHGWGKDAVNWYVEAHDTRTNMSRTNYSYTHHIYKDGYYQQGYPLGDAMGGDGQLIAGKVELITEDNQRWSTRLVYAKVNPENQSINKAFPHADTLKGVQLGWSGDVYQSVRLNTSLWYTNANNSDSDDVGASAGIEIPFSL | not soluble
11 | NPHMWWLQDADPENNSRQASPSQESINQLVYMGFDTVVAEAALRVFGGNVQLAAQTLAHHGGSLPPDLQF | soluble
12 | MAHHHHHHMNIALSHIKKQRCARLYSISSSNNMENLSVAIKIHKYEQTENAPNITNYGYCSGFIKNLKINDDIYLTGAHGYFNLPNDAIQKNTNFIFIATGTGISPYISFLKKLFAYDKNNLYNRNSNYTGYITIYYGVYNEDSILYLNELEYFQKMYPNNINIHYVFSYKQNSDATSFYVQDEIYKRKTEFLNLFNNYKCELYICGHKSIRYKVMDILKSHDQFDEKKKKRVHVEVY | not soluble
13 | MIVSWRHKGLKAFFETGSSSGIRADHSKRLAHVLAVLNRARTPANVNMPGWRLHPLKGELEGFWSITINANWRIIFRFFDTDVELVDYLDYH | not soluble
14 | MEALADVGVLASWSPLHKQVEVIDYYPDGRPHHVRATVKILGLVDKEVLEYHWGPDWVCWDADQTFQQHGQHIEYTVKPEGVDRARVRFDITVEPAGPIPGFIVKRASEHVLDAAAKGLQKLIAGAGDQGNAKSLEHHHHHH | not soluble
15 | MGSDKIHHHHHHMKQIDLVYRTAFAELAQRTFDAQFQADFPLEGRFVAVPVKGRNYWYFDLPTPEGKDKRRYVGPQDDVDITARVKAHRQVKDDIRERRKLVGMLLRSGGMSAPDRFAGEVTKALADAGLFRLRALLVGSVAFSCYSGLLGVRLPGTSMQTGDADFAQDFAISAEVEDSLPPILDLLRSIDSTFRAVPHQADNAKVVAFSNSVNYRVEFLTTNRGSDDYTGKPSPMPALGGASAENLRFLDFLIYEPVRTVLLHREGVSVNIPAPERYAIHKLIVASRRRTDALGRAKRDKDLVQASLLCEALVETRQSHLLADAYREAWTRGEAWQEGILSGLVLMPDNGKLALANALGVTVDRLGKA | not soluble
16 | MRNICFVACMLFCLTSAVGKTPGNTRYLSIADSILSNVLNLYQTNDGLLTETYPVNPDQKITYLAGGTQQNGTLKASFLWPYSGMMSGCVALYKATGNKKYKKILEKRILPGMEQYWDNSRLPACYQSYPTKYGQHGRYYDDNIWIALDYCDYYQLTHKPASLEKAVALYQYIYSGWSDEIGGGIFWCEQQKEAKHTCSNAPSTVLGVKLYRLTKDAKYLEKAKETYAWTKKHLCDPTDHLYWDNINLKGKVSKEKYAYNSGQMIQAGVLLYEETGDEQYLRDAQQTAAGTDAFFRTKADKKDPTVKVHKDMAWFNVILFRGLKALYKIDKNPAYVNAMVENALHAWENYRDENGLLGRDWSGHNKEQYKWLLDNACLIEFFAEIAAALEHHHHHH | not soluble
17 | MTESEIHERFVDTYMHILKYVGDFVSVPTRPYKITFEAYTVMRMIATSEEPLTLVKIAKEQRVSRSAIARQINVLLDLKYIEQTTNTHDRRIKYLSLTPAGHKVEQEITTASEERFHQWVQVYGEKRASDTLRYINDAEQKATELGFSGFSGLHDKRGRHTEYSDPKTKN | not soluble
18 | MSERPDLVDPLPEDEPLPGENIPDTPEGDDPLDPDTQNEVEDPRR | not soluble
19 | AHHHHHHGSPDVYEPIMGAFSLARRLWKMIVEKKGLPTGDDVASLLENLGFERVCTGSGLAVFRNRFVIALLIPRENMIVVDFLSSSGELSDALELIAYYDKEIECYVVEILPSNELEYEENLGIEPVIIDGKTFELRSYPVLGDFKQGKDKVVLKIDREVYELWKESGKLDVCPVCGGHLRWKQGKALCTECGIEVVVDEEH | soluble
20 | MFAELIRAGLQALIEAEATEAIGAGRYERSDGRIVHRNGHRPKTVSTTAGDIEVQIPKLRAGSFFPSLLERRRRIDKALHAVIMEAYVHGVSTRSVDDLVAAMGVQAGVSKSEVSRICAGLDTEIEAFRTRSLTHTEFPYVFCDATFCKVRVGAHVVSQALVVATGVSIDGTREVLGTAVGDSESYEFWREFLASLKARGLTGVHLVISDAHAGLKAAVAQQFSGASWQRCRVHFMRNLYTAVAAKHAPAVTVAVKTIFAHTDPEEVGAQWDRVADPLCQP | soluble
21 | SNATAFVPALVASGLPNEKFCFEGFLPQKKGRMTKLKSLVDEHRTMVFYESPHRLLKTLTQFAEYFGPERQVSVSREISKIHEETVRGTLSELIEHFTATDPRGEIVIVLAGIDD | soluble
22 | MNPLLFNDRTLKGSGVLARVTPTGTQYVASVVAAAFSSHFADIKPPKERKDHQLTTISTVTLRRLMLETLQLDKQLVTTTTSDGLLRITVQNISVSSSAVLSGELREIKLQDNVTFRTANLRIDTAIRIMKNAGGNPALKMESCKIVTQGIKLVTKPMDPRNGKSLADAIANDANTMFSDLICSKIDHIVSNRVNQRFALLSSRISLEDSKNFDIVKIIMQAEERLKRLVRQNMLRSNKTIRRNVHAHNARRVSRDPVRGKRQADEDKFHLILNSFNFSRADSLMLDYSMLSPPSLTSRGIELQTSGEVFQKGHVTPFGAGPIFLPRIPNPSQMLQIVVSDFVPNSLMFHGHRIKLFDTRIDWMTPQFGPVMRTTCDLSTGSLFCIGDLFPALREMLPDRNVAFLFTTLRAPAVIMQPEEKGGIHFSLRGLIRLVSDRNEPIGEMEIRIEALMKMKLTSKSVKGKVTIEEIQFTSRSPRILLQEELDDAGFLSREILQRMVNDILRQGIPIPIHPLFKLVKPKLTLLSRSMLLETNFLLNEHIIAQLTAEALVA | not soluble
